Test results reported in patent US12559559B2, “Targeting Galectin-9 as a therapeutic strategy for T-cell exhaustion in T-cell acute lymphoblastic leukemia” (DANA-FARBER CANCER INSTITUTE, INC., priority 2019, dated 2026).

Target: T1, Galectin-9 (LGALS9) (Homo sapiens, UniProt O00182)
T1 construct: cultured from normal donors with and without T-ALL supernatant (containing LGALS9) for three days; endogenous in cells; host or cells: DND-41 T-ALL cell line (culture supernatant)
Assay: T-cell exhaustion functional assay / HAVCR2-LGALS9 pathway blocking in activated CD8+ T-cells (qRT-PCR)
Assay type: cell-based
Conditions: recombinant Galectin-9 2.5 μg/mL added to the culture, 72 hours
Method: HAVCR2 mRNA expression in activated CD8+ T-cells cultured with T-ALL supernatant (from DND-41 cells; orange) or control media (blue), in the presence/absence of anti-human Galectin-9 (10 μg/mL) or recombinant Galectin-9 (2.5 μg/mL). n.s. P>0.05, **P≤0.01 and ***P≤0.001, based on 3 technical replicates, using two-sided t-test.
T-cells were isolated using Easy Sep Human T-cell Enrichment kit (StemCell Technologies), activated and expanded with Dynabeads Human T-activator CD3/CD28 (ThermoFisher Scientific) in X-VIVO 15 (Lonza) with 5% of human AB serum, and 50 U/mL IL-2 (Miltenyi Biotech). For T-cell exhaustion functional assays, activated CD8′ T-cells were cultured in X-VIVO 15 media or in supernatant media of DND-41 cell line, with 50 U/mL IL-2. For HAVCR2-LSGAL9 pathway blocking experiments, activated CD8^+ T-cells were cultured in X-VIVO 15 media or in supernatant media of DND-41 T-ALL supplemented with anti-human Galectin-9 10 μg/mL (Thermo Fisher Scientific) or recombinant Galectin-9 2.5 μg/mL (R&D systems) for 72 hours.
RNA was isolated using RNeasy Mini Kit (Qiagen), followed by reverse transcription with SuperScript III Reverse Transcriptase (ThermoFisher Scientific). Gene expression was quantified by quantitative real-time PCR using Power SYBR Green PCR Master Mix (Applied Biosystems, Vial instrument). […]

T1 sequence (O00182 whole entry): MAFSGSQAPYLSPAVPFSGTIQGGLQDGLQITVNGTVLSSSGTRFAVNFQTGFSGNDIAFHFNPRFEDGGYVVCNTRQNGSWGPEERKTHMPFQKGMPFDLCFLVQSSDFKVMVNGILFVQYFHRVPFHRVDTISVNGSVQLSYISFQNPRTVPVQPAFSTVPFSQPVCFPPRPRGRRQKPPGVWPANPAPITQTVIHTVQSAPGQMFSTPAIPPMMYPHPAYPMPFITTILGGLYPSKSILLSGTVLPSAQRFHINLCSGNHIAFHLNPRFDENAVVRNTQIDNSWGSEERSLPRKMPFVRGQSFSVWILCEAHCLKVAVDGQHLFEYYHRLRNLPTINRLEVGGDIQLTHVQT

B1: recombinant soluble LGALS9: recombinant Galectin-9 (R&D systems), used at 2.5 μg/mL (protein)
chain: MAFSGSQAPYLSPAVPFSGTIQGGLQDGLQITVNGTVLSSSGTRFAVNFQTGFSGNDIAFHFNPRFEDGGYVVCNTRQNGSWGPEERKTHMPFQKGMPFDLCFLVQSSDFKVMVNGILFVQYFHRVPFHRVDTISVNGSVQLSYISFQNPRTVPVQPAFSTVPFSQPVCFPPRPRGRRQKTQTVIHTVQSAPGQMFSTPAIPPMMYPHPAYPMPFITTILGGLYPSKSILLSGTVLPSAQRFHINLCSGNHIAFHLNPRFDENAVVRNTQIDNSWGSEERSLPRKMPFVRGQSFSVWILCEAHCLKVAVDGQHLFEYYHRLRNLPTINRLEVGGDIQLTHVQT
Exhaustion marker expression in activated CD8+ T-cells: upregulation of exhaustion markers
